Consider 3 molecules from PMC6614449, “Targeting DNAJB9, a novel ER luminal co-chaperone, to rescue ΔF508-CFTR” (Scientific Reports, 2019).

B1: DNAJB8 (on the ProtoArray) (natural protein, UniProt Q8NHS0 1-232, looked up)
chain: MANYYEVLGVQASASPEDIKKAYRKLALRWHPDKNPDNKEEAEKKFKLVSEAYEVLSDSKKRSLYDRAGCDSWRAGGGASTPYHSPFDTGYTFRNPEDIFREFFGGLDPFSFEFWDSPFNSDRGGRGHGLRGAFSAGFGEFPAFMEAFSSFNMLGCSGGSHTTFSSTSFGGSSSGSSGFKSVMSSTEMINGHKVTTKRIVENGQERVEVEEDGQLKSVTVNGKEQLKWMDSK
notes: DNAJB8, protein spotted on the ProtoArray; source: bought: spotted on ProtoArray protein microarray (Invitrogen / ThermoFisher)
B2: Na+/H+ Exchange Regulator Factor 1 (on the ProtoArray) (natural protein, UniProt O14745 1-358, looked up)
chain: MSADAAAGAPLPRLCCLEKGPNGYGFHLHGEKGKLGQYIRLVEPGSPAEKAGLLAGDRLVEVNGENVEKETHQQVVSRIRAALNAVRLLVVDPETDEQLQKLGVQVREELLRAQEAPGQAEPPAAAEVQGAGNENEPREADKSHPEQRELRPRLCTMKKGPSGYGFNLHSDKSKPGQFIRSVDPDSPAEASGLRAQDRIVEVNGVCMEGKQHGDVVSAIRAGGDETKLLVVDRETDEFFKKCRVIPSQEHLNGPLPVPFTNGEIQKENSREALAEAALESPRPALVRSASSDTSEELNSQDSPPKQDSTAPSSTSSSDPILDFNISLAMAKERAHQKRSSKRAPQMDWSKKNELFSNL
notes: NHERF1 (EBP50), protein spotted on the ProtoArray; also called NHERF1; EBP50; source: bought: spotted on ProtoArray protein microarray (Invitrogen / ThermoFisher)
B3: DNAJB7 (on the ProtoArray) (natural protein, UniProt Q7Z6W7 1-309, looked up)
chain: MVDYYEVLGLQRYASPEDIKKAYHKVALKWHPDKNPENKEEAERKFKEVAEAYEVLSNDEKRDIYDKYGTEGLNGGGSHFDDECEYGFTFHKPDDVFKEIFHERDPFSFHFFEDSLEDLLNRPGSSYGNRNRDAGYFFSTASEYPIFEKFSSYDTGYTSQGSLGHEGLTSFSSLAFDNSGMDNYISVTTSDKIVNGRNINTKKIIESDQEREAEDNGELTFFLVNSVANEEGFAKECSWRTQSFNNYSPNSHSSKHVSQYTFVDNDEGGISWVTSNRDPPIFSAGVKEGGKRKKKKRKEVQKKSTKRNC
notes: DNAJB7, protein spotted on the ProtoArray; source: bought: spotted on ProtoArray protein microarray (Invitrogen / ThermoFisher)

T1 sequence (P13569 whole entry): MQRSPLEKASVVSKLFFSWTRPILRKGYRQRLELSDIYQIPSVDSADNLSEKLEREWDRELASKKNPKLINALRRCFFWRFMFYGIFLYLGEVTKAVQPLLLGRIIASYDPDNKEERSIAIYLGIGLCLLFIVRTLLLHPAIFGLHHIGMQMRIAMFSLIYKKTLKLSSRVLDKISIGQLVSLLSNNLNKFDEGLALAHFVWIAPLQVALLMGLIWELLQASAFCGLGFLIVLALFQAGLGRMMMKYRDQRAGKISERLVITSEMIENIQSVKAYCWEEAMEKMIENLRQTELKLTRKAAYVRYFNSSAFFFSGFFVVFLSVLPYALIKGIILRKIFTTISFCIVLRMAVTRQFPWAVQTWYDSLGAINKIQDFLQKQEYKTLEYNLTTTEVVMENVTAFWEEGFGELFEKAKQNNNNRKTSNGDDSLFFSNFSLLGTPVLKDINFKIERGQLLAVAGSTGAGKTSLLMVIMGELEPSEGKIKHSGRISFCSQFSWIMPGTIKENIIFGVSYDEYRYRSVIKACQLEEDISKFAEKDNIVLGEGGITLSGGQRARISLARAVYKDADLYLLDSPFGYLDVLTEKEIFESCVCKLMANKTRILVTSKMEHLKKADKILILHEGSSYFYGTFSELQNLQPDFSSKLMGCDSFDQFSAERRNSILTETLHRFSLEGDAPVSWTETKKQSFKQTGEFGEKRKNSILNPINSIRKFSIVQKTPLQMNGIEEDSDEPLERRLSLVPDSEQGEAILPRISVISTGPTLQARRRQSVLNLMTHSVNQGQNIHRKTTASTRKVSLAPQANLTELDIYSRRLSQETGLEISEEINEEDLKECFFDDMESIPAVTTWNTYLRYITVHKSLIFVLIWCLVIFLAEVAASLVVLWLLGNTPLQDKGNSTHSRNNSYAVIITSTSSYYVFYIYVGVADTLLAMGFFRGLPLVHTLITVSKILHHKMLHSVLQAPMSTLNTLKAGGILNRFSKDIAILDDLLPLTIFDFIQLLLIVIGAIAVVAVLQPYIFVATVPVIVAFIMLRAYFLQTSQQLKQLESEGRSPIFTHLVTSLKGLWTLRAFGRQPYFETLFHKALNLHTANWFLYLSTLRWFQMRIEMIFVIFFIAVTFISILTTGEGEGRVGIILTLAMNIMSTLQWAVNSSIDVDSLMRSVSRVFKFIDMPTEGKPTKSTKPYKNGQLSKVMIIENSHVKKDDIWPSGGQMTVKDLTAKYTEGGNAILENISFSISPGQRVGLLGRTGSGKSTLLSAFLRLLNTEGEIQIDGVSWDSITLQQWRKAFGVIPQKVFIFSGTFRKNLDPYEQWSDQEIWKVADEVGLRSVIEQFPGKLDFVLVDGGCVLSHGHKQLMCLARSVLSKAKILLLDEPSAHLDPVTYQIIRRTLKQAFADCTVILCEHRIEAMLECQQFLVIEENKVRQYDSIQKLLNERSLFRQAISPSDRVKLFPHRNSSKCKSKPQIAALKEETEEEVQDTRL

The assay concerns the target T1, full length FLAG-CFTR (WT-CFTR) (UniProt P13569 1-1480).
T1 construct: Cystic Fibrosis transmembrane-conductance regulator (CFTR), wild type, 1,480 amino acids; Surface CFTR was probed with anti-FLAG on fixed cells, so the FLAG tag may lie in an extracellular loop; also called FLAG-WT-CFTR; Cystic Fibrosis transmembrane-conductance regulator; source: HEK293 cells stably expressing it; purified on anti-FLAG resin (ProtoArray) or in whole-cell lysate (co-IP)
Kind of assay: peptide or protein array; ProtoArray protein microarray (Invitrogen / ThermoFisher) probed with purified full length FLAG-CFTR in solution; bound CFTR detected with mouse anti-FLAG monoclonal antibody and Alexa-488 secondary antibody, fluorescence scanner; mean of duplicate. The note with it: both partners purified.
Consider B1, for which the binding result was “binds”.
Under B2 stands “binds”.
For B3, the binding result is recorded as “binds”.
